Source: article PMC9868005, “Structural and functional characterization of TraI from pKM101 reveals basis for DNA processing”

Key:
[1] = molecular target: T1, TraI trans-esterase domain (TraI-TE) (Escherichia coli? (plasmid pKM101), UniProt D9Z5Q2 1-299); assay: EMSA; interaction only seen above 800 nM; EMSA: 50 nM FITC-DNA, 0-1600 nM protein, 25 mM Hepes-NaOH pH 7.0, 300 mM NaCl, room temperature 15 min; 5% PAGE, 0.75x TBE, 4 C; conditions: protein: recombinant; tags: 10xHis with 3C site, cleaved off; label: 5' FITC
T1 sequence: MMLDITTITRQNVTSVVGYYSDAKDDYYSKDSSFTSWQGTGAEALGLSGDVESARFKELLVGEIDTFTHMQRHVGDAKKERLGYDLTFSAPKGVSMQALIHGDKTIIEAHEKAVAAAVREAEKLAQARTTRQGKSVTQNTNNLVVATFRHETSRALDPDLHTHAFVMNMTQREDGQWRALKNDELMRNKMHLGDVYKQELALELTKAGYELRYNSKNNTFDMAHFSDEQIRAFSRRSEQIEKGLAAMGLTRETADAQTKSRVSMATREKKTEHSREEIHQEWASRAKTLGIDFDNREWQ

TraI full-length = molecular target: T2, TraI full-length (Escherichia coli? (plasmid pKM101), UniProt D9Z5Q2 3-1079); assay: EMSA; complete shift at 200 nM and above; high shift from 50 nM; EMSA: 50 nM FITC-DNA, 0-1600 nM protein, 25 mM Hepes-NaOH pH 7.0, 300 mM NaCl, room temperature 15 min; 5% PAGE, 0.75x TBE, 4 C; conditions: protein: recombinant; tags: 10xHis with 3C site, cleaved off; label: 5' FITC; hairpin
T2 sequence: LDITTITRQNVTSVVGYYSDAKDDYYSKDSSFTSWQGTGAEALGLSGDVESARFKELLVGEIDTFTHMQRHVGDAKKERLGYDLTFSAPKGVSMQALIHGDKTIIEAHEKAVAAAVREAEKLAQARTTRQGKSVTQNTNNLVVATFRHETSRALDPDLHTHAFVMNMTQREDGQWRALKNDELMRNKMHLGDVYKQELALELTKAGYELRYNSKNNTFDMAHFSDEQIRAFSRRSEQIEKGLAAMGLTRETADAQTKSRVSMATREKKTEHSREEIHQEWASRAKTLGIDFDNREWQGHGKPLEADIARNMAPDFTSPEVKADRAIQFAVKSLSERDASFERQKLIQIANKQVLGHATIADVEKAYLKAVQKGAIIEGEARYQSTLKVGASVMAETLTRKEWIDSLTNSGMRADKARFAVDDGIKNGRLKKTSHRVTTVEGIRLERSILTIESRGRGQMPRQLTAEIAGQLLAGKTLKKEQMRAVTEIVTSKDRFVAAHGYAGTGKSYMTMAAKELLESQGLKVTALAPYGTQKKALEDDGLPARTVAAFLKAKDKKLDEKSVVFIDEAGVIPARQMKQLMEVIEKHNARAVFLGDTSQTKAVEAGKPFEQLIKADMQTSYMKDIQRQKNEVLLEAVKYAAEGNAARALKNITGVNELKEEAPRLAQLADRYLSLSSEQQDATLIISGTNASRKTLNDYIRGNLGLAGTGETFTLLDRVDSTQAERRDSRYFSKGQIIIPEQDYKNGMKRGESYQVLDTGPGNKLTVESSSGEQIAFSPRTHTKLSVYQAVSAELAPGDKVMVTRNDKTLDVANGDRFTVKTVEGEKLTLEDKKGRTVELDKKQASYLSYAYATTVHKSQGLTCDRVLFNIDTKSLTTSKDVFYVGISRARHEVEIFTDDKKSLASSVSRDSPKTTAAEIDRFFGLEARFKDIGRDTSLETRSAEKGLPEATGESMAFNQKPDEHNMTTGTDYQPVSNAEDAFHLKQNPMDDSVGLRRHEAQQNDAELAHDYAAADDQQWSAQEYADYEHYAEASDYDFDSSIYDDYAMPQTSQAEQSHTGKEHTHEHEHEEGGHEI

[2] = molecular target: T1, TraI trans-esterase domain (TraI-TE); assay: EMSA; apparent Kd, half-shift point; EMSA: 50 nM FITC-DNA, 0-1600 nM protein, 25 mM Hepes-NaOH pH 7.0, 300 mM NaCl, room temperature 15 min; 5% PAGE, 0.75x TBE, 4 C; conditions: protein: recombinant; tags: 10xHis with 3C site, cleaved off; label: 5' FITC; hairpin
[3] = molecular target: T1, TraI trans-esterase domain (TraI-TE); assay: EMSA; over half bound at 200 nM; EMSA: 50 nM FITC-DNA, 0-1600 nM protein, 25 mM Hepes-NaOH pH 7.0, 300 mM NaCl, room temperature 15 min; 5% PAGE, 0.75x TBE, 4 C; conditions: protein: recombinant; tags: 10xHis with 3C site, cleaved off; label: 5' FITC; hairpin
[4] = molecular target: T1, TraI trans-esterase domain (TraI-TE); assay: X-ray crystallography 2.1 A; divalent cation modeled as Mn2+ (identity uncertain); 10 of 11 bases modeled; EMSA: 50 nM FITC-DNA, 0-1600 nM protein, 25 mM Hepes-NaOH pH 7.0, 300 mM NaCl, room temperature 15 min; 5% PAGE, 0.75x TBE, 4 C; conditions: protein: recombinant; tags: 10xHis with 3C site, cleaved off; U-turn in complex

B1: F-Random57 (ssDNA)
DNA: TCCGCCATGCAGACGAGACCAGTCGGAGATTACCGAGCATTCTATCAGGTCGGCGAC
apparent K (half saturation) [1]: > 800 nM

B2: F-oriT57 (structured_DNA)
DNA: TGTGATAGCGTGATTTATCGCGCTGCGTTAGGTGTATAGCAGGTTAAGGGATAAAAA
apparent K (half saturation) (TraI full-length): < 200 nM | Kd [2]: < 200 nM

TGTGATAGCGTGATTTATCGCGCTGCGTTAGGTGT (structured_DNA) [F-oriT35]
apparent K (half saturation) (TraI full-length): < 200 nM | apparent K (half saturation) [3]: < 200 nM

GCGTTAGGTGT (ssDNA) [oriT11]
binding result [4]: binds
